We go through eleven molecules from patent US20240190987A1, “Engineered EpCam Binding Antibodies” (TigaTX, priority 2021, published 2024).

Numbering of substitutions follows the chain as printed.

For one experiment, the target named is Ab0670. Description: 5-pt kinetics.
The target of experiment [1] is cyEpCAM ECD Ag0066 (cyno). Description: SPR multi-cycle.
In experiment [2] the target is T1, huEpCAM ECD Ag0065 (human) (UniProt P16422).
T1 sequence: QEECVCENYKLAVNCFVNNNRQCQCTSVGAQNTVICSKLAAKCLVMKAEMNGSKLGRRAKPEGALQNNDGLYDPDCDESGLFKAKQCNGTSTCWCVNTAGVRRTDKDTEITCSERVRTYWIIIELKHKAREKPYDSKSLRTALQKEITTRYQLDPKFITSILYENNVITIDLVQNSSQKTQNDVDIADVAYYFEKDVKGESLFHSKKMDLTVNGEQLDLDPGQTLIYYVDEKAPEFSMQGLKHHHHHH
Description: SPR multi-cycle.

Experiment [3] concerns the target cyEpCAM ECD Ag0066 (cyno). In words: SPR single-cycle.
The target in experiment [4] is T1, huEpCAM ECD Ag0065 (human). Description: SPR single-cycle.
Another experiment concerns the target Ab0785. Description: BLI +indinavir.
The target of experiment [5] is Ab0223. Description: BLI 3-pt +indinavir.
Experiment [6] deals with Ab0223. In words: BLI 5-pt +indinavir.
In experiment [7] the target is Ab0223. In words: BLI 5-pt +indinavir. The source holds these as a separate data set.
In experiment [8] the target is Ab0787. In words: BLI 1-pt +indinavir.
For experiment [9], the target named is Ab0786. Description: BLI 1-pt +indinavir.
Experiment [10] has as its target Ab0786. In words: BLI 5-pt +indinavir.
The target in experiment [11] is Ab0787. Description: BLI 5-pt +indinavir.

B1: Ab0785 (Fab, V domains shown)
VH: QVQLVQSGAEVKKPGASVKVSCKASGYTFTSYWMHWVRQHPGQGLEWMGIIHPNSGGTSYAQKFQGRVTMTRDTSTSTVYMELSSLRSEDTAVYYCAMGDYVSRDYWGQGTLVTVSS
VL: EIVLTQSPGTLSLSPGERATLSCRASSSVSSSYLHWYQQKPGQAPRLLIYSTSSRATGIPDRFSGSGSGTDFTLTISRLEPEDFAVYYCQQYSGYQFTFGQGTKLEIK
modifications: chain 1 pos 246: the Lys of the Avi-tag is biotinylated where biotinylated-Ab0785 was captured on streptavidin sensors; written K
As to B1, the Kd with Ab0670 was 29 nM.

B2: Ab0788 (Fab, V domains shown)
VH: B1 VH with S59N
VL: B1 VL
In turn, B2 yielded a Kd with Ab0670 of 86 nM.

B3: Ab1018 (antibody, V domains shown)
VH: EVQLVESGGGLVQPGGSLRLSCAASGFTFSNYWMNWVRQAPGKGLEWVAQIRVKSENFATHYADSVKGRFTISRDDSKSTVYLQMNSLRAEDTAVYYCTLYEGFSWGQGTLVTVSS
VL: DIQMTQSPSSLSASVGDRVTITCSASSSVSSGNFHWYQQKPGKAPKLLIYRTSNLASGVPSRFSGSGSGTDYTLTISSLQPEDFATYYCQQWSGYPYTFGQGTKVEIK
On to B3, for which the equilibrium dissociation constant (Kd) in experiment [1] came out at 1.6 nM; in experiment [2], 2.8 nM; in experiment [3], 2.1 nM; in experiment [4], 3 nM.

B4: Ab1024 (antibody, V domains shown)
VH: B3 VH with A63V, E102D
VL: B3 VL
Regarding B4, the Kd in [1] came to 0.94 nM; in [2], 1.6 nM; in [3], 2 nM; in [4], 2.3 nM.

B5: Ab1019 (antibody, V domains shown)
VH: B3 VH with E102D, G103A
VL: B3 VL
Take B5: the Kd in experiment [1] came out at 1.1 nM; in [2], 1.8 nM; in experiment [3], 2 nM; in experiment [4], 2.5 nM.

B6: Ab1071 (Fab, V domains shown)
VH: EVQLVESGGGLVQPGGSLRLSCAASGFDFSSYSIHWVRQAPGKGLEWVASISPYYGSTYYADSVKGRFTISADTSKNTAYLQMNSLRAEDTAVYYCARYYEWYKYDLYAGSLGFDYWGQGTLVTVSS
VL: DIQMTQSPSSLSASVGDRVTITCRASQSVSSAVAWYQQKPGKAPKLLIYSASSLYSGVPSRFSGSRSGTDFTLTISSLQPEDFATYYCQQGGYSLITFGQGTKVEIK
For B6, the Kd with Ab0785 came out at 2.4 nM.

B7: Ab0637 (antibody, V domains shown)
VH: B6 VH with D106S, A109L
VL: B6 VL
Regarding B7, the dissociation constant Kd stood at 5.4 nM with Ab0223 [5], 3.7 nM in the experiment with Ab0223 [6] and 5.9 nM with Ab0223 [7].

B8: Ab1047 (antibody, V domains shown)
VH: B6 VH with S50A, Y59A, Y99A
VL: B6 VL
The molecule B8 gave an equilibrium dissociation constant (Kd) in the experiment with Ab0787 [8] of 47 nM.

B9: Ab0707 (antibody, V domains shown)
VH: B6 VH with D106S, Y108D, A109L
VL: B6 VL
B9 came in with a dissociation constant (Kd) with Ab0223 [5] of 72 nM.

B10: Ab1044 (antibody, V domains shown)
VH: B6 VH with S50A
VL: B6 VL
Consider B10, for which the dissociation constant (Kd) is 8.2 nM with Ab0786 [9], 5.1 nM with Ab0787 [8], 8.6 nM with Ab0786 [10] and 2.3 nM with Ab0787 [11].

B11: Ab0706 (antibody, V domains shown)
VH: B6 VH with D106S, Y108N, A109L
VL: B6 VL
For the molecule B11, the Kd with Ab0223 [5] is 89 nM.
